Reference: patent US11994512B2, “Single-cell genomic methods to generate ex vivo cell systems that recapitulate in vivo biology with improved fidelity” (Massachusetts Institute of Technology, priority 2018, dated 2024)

Tested on: intracellular proteome of ENR+CD and ENR organoids
Test: LC-MS/MS TMT proteomics of ENR+CD versus ENR organoids
Assay type: cell-based, C57BL/6 mice
Conditions: for Average logFC / M1-1 Log2 Median Normalized / M1-2 Log2 Median Normalized / M2-1 Log2 Median Normalized / M2-2 Log2 Median Normalized: protein abundance, ENR+CD versus ENR organoids; for Average logFC: aggregate of the four sample pairs; for M1-1 Log2 Median Normalized: replicate M1-1; for M1-1 Log2 Median Normalized / M1-2 Log2 Median Normalized / M2-1 Log2 Median Normalized / M2-2 Log2 Median Normalized: log2 ratio; for M1-2 Log2 Median Normalized: replicate M1-2; for M2-1 Log2 Median Normalized: replicate M2-1; for M2-2 Log2 Median Normalized: replicate M2-2; for change: up = enriched in ENR+CD, down = enriched in ENR, FDR<0.05 and log fold change cut-off

Molecule | Average logFC | M1-1 Log2 Median Normalized | M1-2 Log2 Median Normalized | M2-1 Log2 Median Normalized | M2-2 Log2 Median Normalized | change
P50431 (protein, UniProt P50431 1-478, looked up, full-length) MADRDATLWASHEKMLSQPLKDSDAEVYSIIKKESNRQRVGLELIASENFASRAVLEALGSCLNNKYSEGYPGQRYYGGTEFIDELEMLCQKRALQAYHLDPQCWGVNVQPYSGSPANFAVYTALVEPHGRIMGLDLPDGGHLTHGFMTDKKKISATSIFFESMPYKVYPETGYINYDQLEENASLFHPKLIIAGTSCYSRNLDYARLRKIADDNGAYLMADMAHISGLVAAGVVPSPFEHCHVVTTTTHKTLRGCRAGMIFYRKGVRSVDPKTGKETYYELESLINSAVFPGLQGGPHNHAIAGVAVALKQAMTTEFKIYQLQVLANCRALSDALTELGYKIVTGGSDNHLILMDLRSKGTDGGRAEKVLEACSIACNKNTCPGDKSALRPSGLRLGTPALTSRGLLEEDFQKVAHFIHRGIELTLQIQSHMATKATLKEFKEKLAGDEKIQSAVATLREEVENFASNFSLPGLPDF | −1.162 | −1.382 | −1 | −1.1875 | −1.08 | down
P50543 (protein, UniProt P50543 1-98, looked up, full-length) MPTETERCIESLIAVFQKYSGKDGNNTQLSKTEFLSFMNTELAAFTKNQKDPGVLDRMMKKLDLNCDGQLDFQEFLNLIGGLAIACHDSFIQTSQKRI | 1.372 | 1.371 | 1.475 | 1.4645 | 0.855 | up
P51162 (protein, UniProt P51162 1-128, looked up, full-length) MAFSGKYEFESEKNYDEFMKRLGLPGDVIERGRNFKIITEVQQDGQDFTWSQSYSGGNIMSNKFTIGKECEMQTMGGKKFKATVKMEGGKVVAEFPNYHQTSEVVGDKLVEISTIGDVTYERVSKRLA | −1.573 | −0.519 | −1.799 | −2.7635 | −1.209 | down
P51432 (protein, UniProt P51432 1-1234, looked up, full-length) MAGARPGVHALQLEPPTVVETLRRGSKFIKWDEEASSRNLVTLRVDPNGFFLYWTGPNMEVDTLDISSIRDTRTGRYARLPKDPKIREVLGFGGPDTRLEEKLMTVVAGPDPVNTTFLNFMAVQDDTVKVWSEELFKLAMNILAQNASRNTFLRKAYTKLKLQVNQDGRIPVKNILKMFSADKKRVETALESCGLNFNRSESIRPDEFPLEIFERFLNKLCLRPDIDKILLEIGAKGKPYLTLEQLMDFINQKQRDPRLNEVLYPPLRSSQARLLIEKYETNKQFLERDQMSMEGFSRYLGGEENGILPLEALDLSMDMTQPLSAYFINSSHNTYLTAGQLAGPSSVEMYRQALLWGCRCVELDVWKGRPPEEEPFITHGFTMTTEVPLRDVLEAIAEAAFKTSPYPVILSFENHVDSAKQQAKMAEYCRSIFGDALLIDPLDKYPLSAGIPLPSPQDLMGRILVKNKKRHRPSTGVPDSSVRKRPLEQSNSALSESSAATEPSSPQLGSPSSDSCPGLSNGEEVGLEKTSLEPQKSLGEESLSREPNVPMPDRDREDEEEDEEEEETTDPKKPTTDEGTASSEVNATEEMSTLVNYVEPVKFKSFEAARKRNKCFEMSSFVETKAMEQLTKSPMEFVEYNKQQLSRIYPKGTRVDSSNYMPQLFWNVGCQLVALNFQTLDLPMQLNAGVFEYNGRSGYLLKPEFMRRPDKSFDPFTEVIVDGIVANALRVKVISGQFLSDKKVGIYVEVDMFGLPVDTRRKYRTRTSQGNSFNPVWDEEPFDFPKVVLPTLASLRIAAFEEGGKFVGHRILPVSAIRSGYHYVCLRNEANQPLCLPALLIYTEASDYIPDDHQDYAEALINPIKHVSLMDQRAKQLAALIGESEAQASTETYQETPCQQPGSQLPSNPTPNPLDASPRWPPGPTTSSTSSSLSSPGQRDDLIASILSEVTPTPLEELRSHKAMVKLRSRQDRDLRELHKKHQRKAVALTRRLLDGLAQARAEGKCRPSPSALGKATNSEDVKEEEEAKQYREFQNRQVQSLLELREAQADVETKRKLEHLRQAHQRLKEVVLDTHTTQFKRLKELNEREKKELQKILDRKRNNSISEAKTREKHKKEVELTEINRRHITESVNSIRRLEEAQKQRHERLVAGQQQVLQQLEEEEPKLLAQLTQECQEQRERLPQEIRRCLLGETAEGLGDGPLVACASNGHAPGSGGHLSSADSESQEENTQL | −1.187 | −1.261 | −1.255 | −1.1345 | −1.096 | down
P52792 (protein, UniProt P52792 1-465, looked up, full-length) MLDDRARMEATKKEKVEQILAEFQLQEEDLKKVMSRMQKEMDRGLKLETHQEASVKMLPTYVRSTPEGSEVGDFLSLDLGGTNFRVMLVKVGEGEAGQWSVKTKHQMYSIPEDAMTGTAEMLFDYISECISDFLDKHQMKHKKLPLGFTFSFPVRHEDIDKGILLNWTKGFKASGAEGNNIVGLLRDAIKRRGDFEMDVVAMVNDTVATMISCYYEDRQCEVGMIVGTGCNACYMEEMQNVELVEGDEGRMCVNTEWGAFGNSGELDEFLLEYDRMVDESSVNPGQQLYEKIIGGKYMGELVRLVLLKLVEENLLFHGEASEQLRTRGAFETRFVSQVESDSGDRRQILNILSTLGLRPSVADCDIVRRACESVSTRAAHMCSAGLAGVINRMRESRSEDVMRITVGVDGSVYKLHPSFKERFHASVRRLTPNCEITFIESEEGSGRGAALVSAVACKKACMLGQ | 1.166 | 1.847 | 0.711 | 1.3025 | 0.805 | up
P52800 (protein, UniProt P52800 1-336, looked up, full-length) MAMARSRRDSVWKYCWGLLMVLCRTAISRSIVLEPIYWNSSNSKFLPGQGLVLYPQIGDKLDIICPKVDSKTVGQYEYYKVYMVDKDQADRCTIKKENTPLLNCARPDQDVKFTIKFQEFSPNLWGLEFQKNKDYYIISTSNGSLEGLDNQEGGVCQTRAMKILMKVGQDASSAGSARNHGPTRRPELEAGTNGRSSTTSPFVKPNPGSSTDGNSAGHSGNNLLGSEVALFAGIASGCIIFIVIIITLVVLLLKYRRRHRKHSPQHTTTLSLSTLATPKRGGNNNGSEPSDVIIPLRTADSVFCPHYEKVSGDYGHPVYIVQEMPPQSPANIYYKV | −1.24 | −0.883 | −1.258 | −1.7545 | −1.065 | down
P55050 (protein, UniProt P55050 1-132, looked up, full-length) MAFDGTWKVDRNENYEKFMEKMGINVMKRKLGAHDNLKLTITQDGNKFTVKESSNFRNIDVVFELGVNFPYSLADGTELTGAWTIEGNKLIGKFTRVDNGKELIAVREVSGNELIQTYTYEGVEAKRFFKKE | −1.721 | −1.558 | −2.656 | −2.1955 | −0.474 | down
P56395 (protein, UniProt P56395 1-134, looked up, full-length) MAGQSDKDVKYYTLEEIQKHKDSKSTWVILHHKVYDLTKFLEEHPGGEEVLREQAGGDATENFEDVGHSTDARELSKTYIIGELHPDDRSKIAKPSDTLITTVESNSSWWTNWVIPAISALAVALMYRLYMAED | −1.382 | −1.162 | −0.964 | −1.6925 | −1.71 | down
P56695 (protein, UniProt P56695 1-890, looked up, full-length) MNSGTPPPSPSGPPPPPAPQPQARARLNATASLEQDKIEPPRAPRPQADPSAGRSAGEAAAPEPRAPQTGSREETDRAGPMKADVEIPFEEVLEKAKAGDPKAQTEVGKHYLRLANDADEELNSCSAVAWLILAAKQGRREAVKLLRRCLADRKGITSENEAEVKQLSSETDLERAVRKAALVMYWKLNPKKKKQVAVSELLENVGQVNEQDGGAQPGPVPKSLQKQRRMLERLVSSESKNYIALDDFVELTKKYAKGIIPTNLFLQDEDEDEDELAGKSPEDLPLRQKVVKYPLHAIMEIKEYLIDVASKAGMHWLSTIVPTHHINALIFFFIISNLTIDFFAFFIPLVVFYLSFVSMVICTLKVFQDSKAWENFRTLTDLLLRFEPNLDVEQAEVNFGWNHLEPYIHFLLSVVFVIFSFPLASKDCIPCSELAVISTFFTVTSYMSLSSSAEPYTRRALVTEVAAGLLSLLPTVPVDWRFLKVLGQTFFTVPVGHFIILNVSLPCLLYVYLFYLFFRMAQLRNFKGTYCYLVPYLVCFMWCELSVVILLQSTGLGLVRASIGYFLFLFALPILVAGLALMGTVQFARWFLSLDLTKIMVTTVICGVPLLFRWWTKANFSVMGMVKSLTKSSMVKLILVWLTAILLFCWFYVYRSEGMKVYNSTLTWQQYGFLCGPRAWKETNMARTQILCSHLEGHRVTWTGRFKYVRVTEIDNSAESAINMLPFFLGDWMRCLYGEAYPSCSSGNTSTAEEELCRLKQLAKHPCHIKKFDRYKFEITVGMPFGTNGNRGHEEDDITKDIVLRASSEFKDVLLNLRQGSLIEFSTILEGRLGSKWPVFELKAISCLNCMTQLSPARRHVKIEQDWRSTVHGALKFAFDFFFFPFLSAA | 1.149 | 1.527 | 0.901 | 0.7335 | 1.433 | up
P60824 (protein, UniProt P60824 1-172, looked up, full-length) MASDEGKLFVGGLSFDTNEQALEQVFSKYGQISEVVVVKDRETQRSRGFGFVTFENIDDAKDAMMAMNGKSVDGRQIRVDQAGKSSDNRSRGYRGGSAGGRGFFRGGRSRGRGFSRGGGDRGYGGGRFESRSGGYGGSRDYYASRSQGGSYGYRSSGGSYRDSYDSYATHNE | 1.155 | 0.902 | 1.138 | 1.3145 | 1.267 | up
